Common to all, as to assay type: biochemical
Data set [1] in a line: HTP-analysis of supernatants pretreated with acid (MUGal hydrolysis). The conditions noted are these: challenge at pH 4.2; activity of the variant/activity of WT GLA (SEQ ID NO: 5); yeast supernatant. The method, boiled down: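 Fluorescence of MUGal hydrolysis (Ex. 355 nm, Em. 448 nm) is read after sodium carbonate quench. The enzyme source is INVSc1 yeast culture supernatant, first exposed to pH 3.3-4.3 McIlvaine buffer at 37° C. for 1-3 h, then reacted at pH 4.8 for 30-180 minutes.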

Data set [2] can be described thus: HTP-analysis of supernatants pretreated with base (MUGal hydrolysis). Particulars: challenge at pH 7.1; activity of the variant/activity of WT GLA (SEQ ID NO: 5); yeast supernatant. The method, boiled down: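 Fluorescence of released 4-MU (Ex 355 nm, Em 448 nm) after carbonate quench reports MUGal hydrolysis by GLA variants secreted from INVSc1 yeast. Before the acidic (pH 4.3-4.8) 30-180 min reaction at 37° C, supernatants had been pre-incubated at pH 7.0-9.7 for 1-18 h at 37° C.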

A short description of data set [3]: HTP-analysis of yeast culture supernatants, no challenge (MUGal hydrolysis). Particulars: activity of the variant/activity of WT GLA (SEQ ID NO: 5), yeast supernatant. In outline:
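Activity read as 4-methylumbelliferyl α-D-galactopyranoside hydrolysis: fluorescence (355/448 nm) after sodium carbonate stop, following 30-180 min at 37° C with 2 mM MUGal stock at pH 4.6–4.8. Enzyme source is unchallenged culture supernatant of INVSc1 yeast expressing GLA variants, grown 66-84 h at 30° C.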

B1: 39 (protein)
chain: LDNGLARTPTMGWLHWERFMCNLDCQEEPDSCISEKLFMEMAELMVSEGWKDAGYEYLCIDDCWMAPQRDSEGRLQADPQRFPHGIRQLANYVHSKGLKLGIYADVGNKTCAGFPGSFGYYDINAQTFADWGVDLLKFDGCYCDSLGNLADGYKHMSLALKQVGASSIVXCEWPLYSWPFQKPNYTEIRQYCNHWRNFADIDDSWKSIKSILDWTSENQERIVDVAGPGGWNDPDMLVIGNFGLSWNQQVTQMALWAIMAAPLFMSNDLRHISPQAKALLQDKDVIAINQDPLGKQGYQLRQGDNFEVWERPLSGLAWAVAMINRQEIGGPRSYTIAVASLGKGVACNPACFITQLLPVKRKLGFYEWTSRLRSHINPTGTVLLQLENTMQMSKDLLL
modifications: Synthetic Polypeptide sequence of Variant No. 39 of mature Human GLA; VARIANT (170)..(170): Xaa = any amino acid or absent
On to B1, for which the “Relative Activity of GLA Variants After Challenge at pH 4.2” value (from here on “Relative Activity … at pH 4.2”) in data set [1] was “++ (++ = >1.5 to 2.5 relative activity over WT GLA (SEQ ID NO: 5))”. In data set [2], the “Relative Activity of GLA Variants After Challenge at pH 7.1” value (from here on “Relative Activity … at pH 7.1”) is on record as “++ (++ = >1.5 to 2.5 relative activity over WT GLA (SEQ ID NO: 5))”. Further, the “Relative Activity of GLA Variants After No Challenge (NC)” value in data set [3] is recorded as “+ (+ = 0.5 to 1.5 relative activity over WT GLA (SEQ ID NO: 5))”.

B2: 161 (protein)
chain: LDNGLARTPTMGWLHWERFMCNLDCQEEPDSCISEKLFMEMAELMVSEGWKDAGYEYLCIDDCWMAPQRDSEGRLQADPQRFPHGIRQLANYVHSKGLKLGIYADVGNKTCAGFPGSFGYYDIDAQTFADWGVDLLKFDGCYCDSLENLADGYKHMSLALNRTGRHIVYSCEWPLYMWPFQKPNYTEIRQYCNHWRNFADIDDSWKSIKSILDWTSFNQERIVDVAGPGGWNDPDMLVIGNFGLSWNQQVTQMALWAIMAAPLFMSNDLRHISPQAKALLQDKDVIAINQDPLGKQGYQLRQGDNFEVWERPLSGLAWAVAMINRQEIGGPRSYTIAVASLGKGVACNPACFITQLLPVKRKLGFYEWTSRLRSHINPTGTVLLQLENTMQMSKDLLL
modifications: Synthetic Polypeptide sequence of Variant No. 161 of mature Human GLA
In the case of B2, the “Relative Activity … at pH 4.2” value in data set [1] is reported as “+ (+ = 0.5 to 1.5 relative activity over WT GLA (SEQ ID NO: 5))”. Besides, in data set [2], the “Relative Activity … at pH 7.1” value is “+ (+ = 0.5 to 1.5 relative activity over WT GLA (SEQ ID NO: 5))”. For the same molecule, the “Relative Activity of GLA Variants After No Challenge (NC)” value in data set [3] is given as “+ (+ = 0.5 to 1.5 relative activity over WT GLA (SEQ ID NO: 5))”.

B3: 162 (protein)
chain: LDNGLARTPTMGWLHWERFMCNLDCQEEPDSCISEKLFMEMAELMVSEGWKDAGYEYLCIDDCWMAPQRDSEGRLQADPQRFPHGIRQLANYVHSKGLKLGIYADVGNKTCAGFPGSFGYYDIDAQTFADWGVDLLKFDGCYCDSLENLADGYKHMSLALNRTGRKIVYSCEWPLYMWPFQKPNYTEIRQYCNHWRNFADIDDSWKSIKSILDWTSFNQERIVDVAGPGGWNDPDMLVIGNFGLSWNQQVTQMALWAIMAAPLFMSNDLRHISPQAKALLQDKDVIAINQDPLGKQGYQLRQGDNFEVWERPLSGLAWAVAMINRQEIGGPRSYTIAVASLGKGVACNPACFITQLLPVKRKLGFYEWTSRLRSHINPTGTVLLQLENTMQMSKDLLL
modifications: Synthetic Polypeptide sequence of Variant No. 162 of mature Human GLA
Turning to B3, the “Relative Activity … at pH 4.2” value in data set [1] is recorded as “+ (+ = 0.5 to 1.5 relative activity over WT GLA (SEQ ID NO: 5))”. Further, in data set [2], the “Relative Activity … at pH 7.1” value is “+ (+ = 0.5 to 1.5 relative activity over WT GLA (SEQ ID NO: 5))”. Also, the “Relative Activity of GLA Variants After No Challenge (NC)” value in data set [3] is “+ (+ = 0.5 to 1.5 relative activity over WT GLA (SEQ ID NO: 5))”.

(Values after patent US11278600B2, “Human alpha-galactosidase variants” (Codexis, Inc., priority 2014, dated 2022).)
